Laboratory results reported in patent US20120021995A1 (published 2012).
Changes are numbered by the printed parent chain. Values belong to the molecule of their own block, whether it stands above or below them.

Columns and labels:
[1] = target: T1, DR4 (TRAIL-R1) on cancer cells (human, UniProt O00220 24-468); experiment: cell-based or functional assay
T1 sequence: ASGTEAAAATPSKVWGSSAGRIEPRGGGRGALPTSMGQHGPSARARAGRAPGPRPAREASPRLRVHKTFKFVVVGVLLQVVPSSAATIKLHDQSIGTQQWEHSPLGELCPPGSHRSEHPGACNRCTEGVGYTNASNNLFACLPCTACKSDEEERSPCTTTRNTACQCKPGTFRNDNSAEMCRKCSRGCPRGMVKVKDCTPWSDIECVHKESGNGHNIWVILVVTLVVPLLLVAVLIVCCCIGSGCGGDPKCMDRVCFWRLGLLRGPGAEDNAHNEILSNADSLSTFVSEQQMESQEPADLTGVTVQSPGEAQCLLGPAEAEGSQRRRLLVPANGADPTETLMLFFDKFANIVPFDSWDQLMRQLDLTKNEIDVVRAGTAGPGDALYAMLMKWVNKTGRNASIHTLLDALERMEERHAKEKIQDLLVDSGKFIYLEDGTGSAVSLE

[2] = target: DR5 (TRAIL-R2) on cancer cells (human, UniProt O14763 56-440); experiment: cell-based or functional assay
[3] = target: T2, recombinant human TRAIL R2 (DR5)/Fc chimera (human, UniProt O14763 54-182); experiment: SPR (Biacore), DR5-Fc captured by anti-Fc, ATRIMER analyte; apparent
T2 construct: bought (R&D Systems); not shown: Fc of the bought chimera (R&D Systems)
Description: (§1) Immobilization of an anti-human IgG Fc antibody (Biacore) to the CM5 chip (Biacore) was performed using standard amine coupling chemistry and this surface was used to capture recombinant human DR4 or DR5 receptor Fc fusion protein (R&D Systems). ATRIMER™ dilutions (1-500 nM) were injected over the DR4 and DR5 receptor surface at 30 μl/min and kinetic constants were derived from the sensorgram data using the Biaevaluation software (version 3.1, Biacore). Data collection was 3 minutes for the association and 5 minutes for dissociation. The anti-human IgG surface was regenerated with a 30 s pulse of 3 M magnesium chloride. All sensorgrams were double-referenced against an activated and blocked flow-cell as well as buffer injections.

[4] = target: T1, DR4 (TRAIL-R1) on cancer cells; experiment: cell-based or functional assay; remark: listed apart in the source
[5] = target: T3, recombinant human TRAIL R1 (DR4)/Fc chimera (human, UniProt O00220 24-239); experiment: SPR (Biacore), ATRIMER
T3 construct: bought (R&D Systems); not shown: Fc of the bought chimera (R&D Systems)
T3 sequence: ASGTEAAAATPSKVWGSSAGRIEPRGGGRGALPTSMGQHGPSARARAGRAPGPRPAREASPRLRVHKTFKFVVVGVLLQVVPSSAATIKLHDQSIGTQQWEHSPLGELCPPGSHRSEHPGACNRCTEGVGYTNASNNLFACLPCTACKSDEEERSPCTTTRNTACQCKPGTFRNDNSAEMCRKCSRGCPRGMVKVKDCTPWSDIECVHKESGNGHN
Description: as §1
Clones were then sub-cloned into pANA19 for expression and purification as described above. Cell killing activity was measured as described above, and binding affinity was measured by Biacore.

[6] = target: T1, DR4 (TRAIL-R1) on cancer cells; experiment: cell-based or functional assay; remark: listed apart in the source
[7] = target: T1, DR4 (TRAIL-R1) on cancer cells; experiment: cell-based or functional assay; remark: listed apart in the source

Molecule: rhTRAIL-His (from UniProt P50591 95-281) (ligand)
- EC50 Colo205 (cell killing) [1]: 0.06 nM
- EC50 ST486 (cell killing) [1]: 0.06 nM

- Ka [3]: 1.74e+08 M⁻¹
- Kd [3]: 5.74 nM
- koff [3]: 0.000362 s⁻¹
- kon [3]: 63000 M⁻¹ s⁻¹
B1: 029-15.A3C (designed binder)
chain: EPPTQKPKKIVNAKKDVVNTKMFEELKSRLDTLAQEVALLKEQQALQTVCLKGTKVHMKCFLAFTQTKTFHEASEDCISRGGTLSTPQTGSENDALYEYLRQSVGNEAEIWLGLNRATLRPRWVDMTGARIAYKNWETEITAQPDGGKNCAVLSGAANGKWFDKRCRDQLPYICQFGIV
notes: ATRIMER; also called 4a8c
- % cell death of H2122 and A2780 cells, 20 µg/mL, 20 h [2]: > 50%

- Kd [5]: 3.2 nM
- koff [5]: 0.000302 s⁻¹
- kon [5]: 93800 M⁻¹ s⁻¹
B2: 29p61P1E11 (designed binder)
chain: EPPTQKPKKIVNAKKDVVNTKMFEELKSRLDTLAQEVALLKEQQALQTVCLKGTKVHMKCFLAFTQTKTFHEASEDCISRGGTLSTPQTGSENDALYEYLRQSVGNEAEIWLGLNGWLEGVGWVDMTGARIAYKNWETEITAQPDGGWPFSNENCAVLSGAANGKWFDKRCRDQLPYICQFGIV
notes: ATRIMER; also called 029-61.1E11
- ED50 ST486 (cell killing) [4]: 217 nM
- ED50 (nM) ST486 (cell killing) [6]: 217 nM

B3: 71p88P1G1 (designed binder)
chain: B2 chain with L118M, W148P, F150W, S151R, N152W
- Colo205 % killing (% of TRAIL activity) [7]: 12%
- H2122 % killing (% of TRAIL activity) [7]: 0%
- ST486 % killing (% of TRAIL activity) [7]: 78%
- ED50 ST486 (cell killing) [4]: 80 nM

B4: 71p88P1G4 (designed binder)
chain: B2 chain with W117Y, L118M, E119T, W148R, P149S, F150W, S151K, N152W
- Colo205 % killing (% of TRAIL activity) [7]: 24%
- H2122 % killing (% of TRAIL activity) [7]: 5%
- ST486 % killing (% of TRAIL activity) [7]: 75%
- ED50 ST486 (cell killing) [4]: 75 nM

B5: 71p88P1F2 (designed binder)
chain: B2 chain with V121S, W148F, F150A, S151R, N152W
- Colo205 % killing (% of TRAIL activity) [7]: -18%
- H2122 % killing (% of TRAIL activity) [7]: -5%
- ST486 % killing (% of TRAIL activity) [7]: 58%
- ED50 ST486 (cell killing) [4]: 168 nM

B6: 71p88P1B3 (designed binder)
chain: B2 chain with V121S, W148V, P149Q, F150W, S151R, N152W
- Colo205 % killing (% of TRAIL activity) [7]: 42%
- H2122 % killing (% of TRAIL activity) [7]: 0%
- ST486 % killing (% of TRAIL activity) [7]: 88%
- ED50 ST486 (cell killing) [4]: 3.2 nM

- Ka [3]: 6.43e+07 M⁻¹
- Kd [3]: 15.6 nM
- koff [3]: 0.000629 s⁻¹
- kon [3]: 40500 M⁻¹ s⁻¹
B7: 029-15.A8G (designed binder)
chain: EPPTQKPKKIVNAKKDVVNTKMFEELKSRLDTLAQEVALLKEQQALQTVCLKGTKVHMKCFLAFTQTKTFHEASEDCISRGGTLSTPQTGSENDALYEYLRQSVGNEAEIWLGLNRAWLRPRWVDMTGARIAYKNWETEITAQPDGGTLVSGENCAVLSGAANGKWFDKRCRDQLPYICQFGIV
notes: ATRIMER; also called 1a7b
- % cell death of H2122 and A2780 cells, 20 µg/mL, 20 h [2]: > 50%

- Ka [3]: 2.56e+07 M⁻¹
- Kd [3]: 39.1 nM
- koff [3]: 0.000506 s⁻¹
- kon [3]: 12900 M⁻¹ s⁻¹
B8: 029-15.A1H (designed binder)
chain: B7 chain with W118V, T148W, L149V, V150L, S151G, E153K
notes: ATRIMER; also called 8b6b
- % cell death of H2122 and A2780 cells, 20 µg/mL, 20 h [2]: > 50%
